The text below walks through data of paper PMC9352680, “A comprehensive thermodynamic model for RNA binding by the Saccharomyces cerevisiae Pumilio protein PUF4”.

A value given as a limit tells only on which side of the number the result lay.

The labels stand for the following.
T1: PUF4 RNA-binding domain (Saccharomyces cerevisiae, UniProt P25339 537-888)
T1 sequence: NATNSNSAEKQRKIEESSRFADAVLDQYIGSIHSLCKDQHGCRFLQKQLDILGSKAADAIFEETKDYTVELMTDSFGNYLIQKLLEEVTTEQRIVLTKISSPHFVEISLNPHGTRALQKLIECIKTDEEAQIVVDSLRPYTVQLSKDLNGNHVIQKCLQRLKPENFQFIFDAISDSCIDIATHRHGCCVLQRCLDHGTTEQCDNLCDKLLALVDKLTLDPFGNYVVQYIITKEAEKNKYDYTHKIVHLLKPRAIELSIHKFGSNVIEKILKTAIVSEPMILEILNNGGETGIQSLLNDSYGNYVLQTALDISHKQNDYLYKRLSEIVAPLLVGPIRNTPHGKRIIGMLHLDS

B1: Ib_S2_P3E.1_K3.1_C3.1_H3.1_[G2C]_[T3C]_A3.1_F3.1_T3.1 (ssRNA)
RNA: UUUGAUUAAUAUGAUAUCGUUCUUUCUUCCAUAUAUUCUUUCUCGAUAUCAUAUUAAUCUUU
B2: Ib_S2_P3E.1_K3.1_C3.1_H3.1_[G2T]_[T3A]_A3.1_F3.1_T3.1 (ssRNA)
RNA: UUUGAUUAAUAUGAUAUCGUUCUUUCUUUAAUAUAUUCUUUCUCGAUAUCAUAUUAAUCUUU
B3: Ib_S2_P3E.1_K3.1_C3.1_H3.1_[G2A]_[T3C]_A3.1_F3.1_T3.1 (ssRNA)
RNA: UUUGAUUAAUAUGAUAUCGUUCUUUCUUACAUAUAUUCUUUCUCGAUAUCAUAUUAAUCUUU
B4: Ie_S2_P5E.1_K5.1_C5.1_H5.1_A5.1_[+5TCTCT]_F5.1_T5.1 (ssRNA)
RNA: UUUGAUUAAUAUGAUAUCGUUCUUUCUUGUAUUCUCUUAUUAUUCUUUCUCGAUAUCAUAUUAAUCUUU
B5: Ie_S2_P5E.1_K5.1_C5.1_H5.1_A5.1_[+5CCCTT]_F5.1_T5.1 (ssRNA)
RNA: UUUGAUUAAUAUGAUAUCGUUCUUUCUUGUAUCCCUUUAUUAUUCUUUCUCGAUAUCAUAUUAAUCUUU
B6: Ie_S2_P5E.1_K5.1_C5.1_H5.1_A5.1_[+6TTCCT]_F5.1_T5.1 (ssRNA)
RNA: UUUGAUUAAUAUGAUAUCGUUCUUUCUUGUAUUUUCCUAUUAUUCUUUCUCGAUAUCAUAUUAAUCUUU
B7: Ie_S2_P5E.1_K5.1_C5.1_H5.1_A5.1_[+7CTCTC]_F5.1_T5.1 (ssRNA)
RNA: UUUGAUUAAUAUGAUAUCGUUCUUUCUUGUAUUACUCUCUUAUUCUUUCUCGAUAUCAUAUUAAUCUUU
B8: Ie_S2_P5E.1_K5.1_C5.1_H5.1_A5.1_[+6CCTCT]_F5.1_T5.1 (ssRNA)
RNA: UUUGAUUAAUAUGAUAUCGUUCUUUCUUGUAUUCCUCUAUUAUUCUUUCUCGAUAUCAUAUUAAUCUUU
B9: Ie_S2_P5E.1_K5.1_C5.1_H5.1_A5.1_[+6TCTCT]_F5.1_T5.1 (ssRNA)
RNA: UUUGAUUAAUAUGAUAUCGUUCUUUCUUGUAUUUCUCUAUUAUUCUUUCUCGAUAUCAUAUUAAUCUUU
B10: Ie_S2_P5E.1_K5.1_C5.1_H5.1_A5.1_[+5TTCCT]_F5.1_T5.1 (ssRNA)
RNA: UUUGAUUAAUAUGAUAUCGUUCUUUCUUGUAUUUCCUUAUUAUUCUUUCUCGAUAUCAUAUUAAUCUUU
B11: Ie_S2_P5E.1_K5.1_C5.1_H5.1_A5.1_[+7TCTCT]_F5.1_T5.1 (ssRNA)
RNA: UUUGAUUAAUAUGAUAUCGUUCUUUCUUGUAUUAUCUCUUUAUUCUUUCUCGAUAUCAUAUUAAUCUUU
B12: Ie_S2_P5E.1_K5.1_C5.1_H5.1_A5.1_[+5CCTCT]_F5.1_T5.1 (ssRNA)
RNA: UUUGAUUAAUAUGAUAUCGUUCUUUCUUGUAUCCUCUUAUUAUUCUUUCUCGAUAUCAUAUUAAUCUUU
B13: Ie_S2_P5E.1_K5.1_C5.1_H5.1_A5.1_[+7CC]_F5.1_T5.1 (ssRNA)
RNA: UUUGAUUAAUAUGAUAUCGUUCUUUCUUGUAUUACCUUAUUCUUUCUCGAUAUCAUAUUAAUCUUU
B14: Ie_S2_P5E.1_K5.1_C5.1_H5.1_A5.1_F5.1_[+9TT]_T5.1 (ssRNA)
RNA: UUUGAUUAAUAUGAUAUCGUUCUUUCUUGUAUUAUUUUAUUCUUUCUCGAUAUCAUAUUAAUCUUU
B15: Ie_S2_P5E.1_K5.1_C5.1_H5.1_A5.1_[+7TC]_F5.1_T5.1 (ssRNA)
RNA: UUUGAUUAAUAUGAUAUCGUUCUUUCUUGUAUUAUCUUAUUCUUUCUCGAUAUCAUAUUAAUCUUU
B16: Ie_S2_P5E.1_K5.1_C5.1_H5.1_A5.1_[+6TTC]_F5.1_T5.1 (ssRNA)
RNA: UUUGAUUAAUAUGAUAUCGUUCUUUCUUGUAUUUUCAUUAUUCUUUCUCGAUAUCAUAUUAAUCUUU
B17: Ie_S2_P5E.1_K5.1_C5.1_H5.1_A5.1_[+7CTT]_F5.1_T5.1 (ssRNA)
RNA: UUUGAUUAAUAUGAUAUCGUUCUUUCUUGUAUUACUUUUAUUCUUUCUCGAUAUCAUAUUAAUCUUU
B18: Ie_S2_P5E.1_K5.1_C5.1_H5.1_A5.1_[+7CCT]_F5.1_T5.1 (ssRNA)
RNA: UUUGAUUAAUAUGAUAUCGUUCUUUCUUGUAUUACCUUUAUUCUUUCUCGAUAUCAUAUUAAUCUUU
B19: Ie_S2_P5E.1_K5.1_C5.1_H5.1_A5.1_[+7TCT]_F5.1_T5.1 (ssRNA)
RNA: UUUGAUUAAUAUGAUAUCGUUCUUUCUUGUAUUAUCUUUAUUCUUUCUCGAUAUCAUAUUAAUCUUU
B20: Ie_S2_P5E.1_K5.1_C5.1_H5.1_A5.1_F5.1_[+9CTT]_T5.1 (ssRNA)
RNA: UUUGAUUAAUAUGAUAUCGUUCUUUCUUGUAUUAUUCUUAUUCUUUCUCGAUAUCAUAUUAAUCUUU
B21: Ie_S2_P5E.1_K5.1_C5.1_H5.1_A5.1_F5.1_[+8CCT]_T5.1 (ssRNA)
RNA: UUUGAUUAAUAUGAUAUCGUUCUUUCUUGUAUUAUCCUUAUUCUUUCUCGAUAUCAUAUUAAUCUUU
B22: Ie_S2_P5E.1_K5.1_C5.1_H5.1_A5.1_F5.1_[+8TTT]_T5.1 (ssRNA)
RNA: UUUGAUUAAUAUGAUAUCGUUCUUUCUUGUAUUAUUUUUAUUCUUUCUCGAUAUCAUAUUAAUCUUU
B23: Ie_S2_P5E.1_K5.1_C5.1_H5.1_A5.1_[+7CTC]_F5.1_T5.1 (ssRNA)
RNA: UUUGAUUAAUAUGAUAUCGUUCUUUCUUGUAUUACUCUUAUUCUUUCUCGAUAUCAUAUUAAUCUUU
B24: Ie_S2_P5E.1_K5.1_C5.1_H5.1_A5.1_[+6TCTC]_F5.1_T5.1 (ssRNA)
RNA: UUUGAUUAAUAUGAUAUCGUUCUUUCUUGUAUUUCUCAUUAUUCUUUCUCGAUAUCAUAUUAAUCUUU
B25: Ie_S2_P5E.1_K5.1_C5.1_H5.1_A5.1_[+7TCTC]_F5.1_T5.1 (ssRNA)
RNA: UUUGAUUAAUAUGAUAUCGUUCUUUCUUGUAUUAUCUCUUAUUCUUUCUCGAUAUCAUAUUAAUCUUU
B26: Ie_S2_P5E.1_K5.1_C5.1_H5.1_A5.1_[+7CCCT]_F5.1_T5.1 (ssRNA)
RNA: UUUGAUUAAUAUGAUAUCGUUCUUUCUUGUAUUACCCUUUAUUCUUUCUCGAUAUCAUAUUAAUCUUU
B27: Ie_S2_P5E.1_K5.1_C5.1_H5.1_A5.1_[+6CCCT]_F5.1_T5.1 (ssRNA)
RNA: UUUGAUUAAUAUGAUAUCGUUCUUUCUUGUAUUCCCUAUUAUUCUUUCUCGAUAUCAUAUUAAUCUUU
B28: Ie_S2_P5E.1_K5.1_C5.1_H5.1_A5.1_[+7TTCC]_F5.1_T5.1 (ssRNA)
RNA: UUUGAUUAAUAUGAUAUCGUUCUUUCUUGUAUUAUUCCUUAUUCUUUCUCGAUAUCAUAUUAAUCUUU
B29: Ie_S2_P5E.1_K5.1_C5.1_H5.1_A5.1_[+7CCTC]_F5.1_T5.1 (ssRNA)
RNA: UUUGAUUAAUAUGAUAUCGUUCUUUCUUGUAUUACCUCUUAUUCUUUCUCGAUAUCAUAUUAAUCUUU
B30: Ie_S2_P5E.1_K5.1_C5.1_H5.1_A5.1_[+7CTCT]_F5.1_T5.1 (ssRNA)
RNA: UUUGAUUAAUAUGAUAUCGUUCUUUCUUGUAUUACUCUUUAUUCUUUCUCGAUAUCAUAUUAAUCUUU
B31: Ie_S2_P5E.1_K5.1_C5.1_H5.1_A5.1_[+6CCTC]_F5.1_T5.1 (ssRNA)
RNA: UUUGAUUAAUAUGAUAUCGUUCUUUCUUGUAUUCCUCAUUAUUCUUUCUCGAUAUCAUAUUAAUCUUU
B32: Ie_S2_P5E.1_K5.1_C5.1_H5.1_A5.1_F5.1_[+9T]_T5.1 (ssRNA)
RNA: UUUGAUUAAUAUGAUAUCGUUCUUUCUUGUAUUAUUUAUUCUUUCUCGAUAUCAUAUUAAUCUUU

For this data set, the target named is T1, PUF4 RNA-binding domain. Put plainly: Mg; RNA-MaP; 20 mM Na-HEPES pH 7.4, 30 mM KOAc, 0.75 mM MgCl2, 0.1% Tween-20, 5% glycerol, 0.1 mg/mL BSA, 2 mM DTT; 25 C; 0.0125-409.6 nM protein. The following applies: tags: N-His6-TEV cleaved; C-SNAP kept, Cy3B-labelled; label: tethered on chip by stalled RNA polymerase.
In general, Kd refers to the equilibrium constant for the complex coming apart. A lower Kd goes with a tighter complex. As for B1, the Kd is over 2300 nM. Molecule B2 came in with a Kd of 1460 nM. Under B3 stands over 2300 nM; under B4, 9.67 nM; under B5, 16.3 nM. On to B6, for which binding was put at a Kd of 12.3 nM. As to B7, the Kd was 47.3 nM. The molecule B8 showed a Kd of 20.8 nM. B9 gave a Kd of 12.9 nM. The molecule B10 came in with a Kd of 13.2 nM. Under B11 stands 17.2 nM; under B12, 12.8 nM. Under B13 stands 58.9 nM; under B14, 8.73 nM; under B15, 11.8 nM. In turn, B16 registered a Kd of 28.6 nM. Under B17 stands 25.2 nM; under B18, 31.6 nM; under B19, 15.8 nM. Under B20 stands 10.5 nM; under B21, 16.6 nM. Molecule B22 showed a Kd of 8.05 nM. As to B23, binding was put at a Kd of 42.2 nM. In turn, B24 registered a dissociation constant (Kd) of 75.2 nM. Molecule B25 showed a Kd of 18.3 nM. On to B26, for which binding was put at a Kd of 74 nM. Under B27 stands 15.6 nM; under B28, 10.1 nM; under B29, 49 nM. B30: the Kd came to 51.9 nM. Molecule B31 yielded a Kd of 99.6 nM.

Molecule B32 had a Kd of 5.9 nM.
